The text below walks through data of patent US6627739.

Data set [1] concerns the target MBP-C125sw fusion protein [MBP: P0AEX9].
The target of data set [2] is wild-type APP (βAPP 751) expressed from pohCK751 in 293T cells, P05067.
Data set [3] has as its target Swedish mutant APP (βAPP 751 sw) expressed from pohCK751 in 293T cells, P05067.

Sequence of wild-type APP (βAPP 751) expressed from pohCK751 in 293T cells, P05067 (P05067 whole entry, looked up): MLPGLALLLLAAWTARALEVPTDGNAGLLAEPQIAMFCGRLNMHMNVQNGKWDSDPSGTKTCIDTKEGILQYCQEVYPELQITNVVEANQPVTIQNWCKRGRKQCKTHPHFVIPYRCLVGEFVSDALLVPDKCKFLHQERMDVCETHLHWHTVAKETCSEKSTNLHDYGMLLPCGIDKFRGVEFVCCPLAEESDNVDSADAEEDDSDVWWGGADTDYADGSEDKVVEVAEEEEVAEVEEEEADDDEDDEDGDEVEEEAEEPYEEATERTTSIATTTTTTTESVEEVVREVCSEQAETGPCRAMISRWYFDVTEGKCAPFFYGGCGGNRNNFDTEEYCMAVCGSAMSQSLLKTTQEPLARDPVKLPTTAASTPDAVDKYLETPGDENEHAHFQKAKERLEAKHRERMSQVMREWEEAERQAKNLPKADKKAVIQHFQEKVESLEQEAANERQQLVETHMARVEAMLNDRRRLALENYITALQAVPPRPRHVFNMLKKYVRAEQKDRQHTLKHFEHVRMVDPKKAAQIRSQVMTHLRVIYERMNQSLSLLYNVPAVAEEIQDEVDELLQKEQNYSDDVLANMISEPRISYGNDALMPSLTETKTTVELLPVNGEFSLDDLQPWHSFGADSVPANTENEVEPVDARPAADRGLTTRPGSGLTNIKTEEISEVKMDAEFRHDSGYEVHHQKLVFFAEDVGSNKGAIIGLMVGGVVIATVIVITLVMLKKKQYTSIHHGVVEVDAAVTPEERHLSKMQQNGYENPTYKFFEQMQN
Sequence of Swedish mutant APP (βAPP 751 sw) expressed from pohCK751 in 293T cells, P05067 (P05067 whole entry, looked up, change not shown): as the sequence (P05067 whole entry, looked up) above

B1: 452stop, recombinant β-secretase truncated at position 452 (1-452) (protein)
chain: ETDEEPEEPGRRGSFVEMVDNLRGKSGQGYYVEMTVGSPPQTLNILVDTGSSNFAVGAAPHPFLHRYYQRQLSSTYRDLRKGVYVPYTQGKWEGELGTDLVSIPHGPNVTVRANIAAITESDKFFINGSNWEGILGLAYAEIARPDDSLEPFFDSLVKQTHVPNLFSLQLCGAGFPLNQSEVLASVGGSMIIGGIDHSLYTGSLWYTPIRREWYYEVIIVRVEINGQDLKMDCKEYNYDKSIVDSGTTNLRLPKKVFEAAVKSIKAASSTEKFPDGFWLGEQLVCWQAGTTPWNIFPVISLYLMGEVTNQSFRITILPQQYLRPVEDVATSQDDCYKFAISQSSTGTVMGAVIMEGFYVVFDRARKRIGFAVSACHVHDEFRTAAVEGPFVTLDMEDCGYNIPQTDEYKDDDDK
In the case of B1, in data set [1], the cleavage of substrate entry is given as “The C-terminal truncated form of the enzyme exhibited activity in leaving the MBP-C125sw substrate as well as the P26-P4′ substrate”.

B2: FLp501, full length recombinant β-secretase having a C-terminal flag sequence (protein)
chain: ETDEEPEEPGRRGSFVEMVDNLRGKSGQGYYVEMTVGSPPQTLNILVDTGSSNFAVGAAPHPFLHRYYQRQLSSTYRDLRKGVYVPYTQGKWEGELGTDLVSIPHGPNVTVRANIAAITESDKFFINGSNWEGILGLAYAEIARPDDSLEPFFDSLVKQTHVPNLFSLQLCGAGFPLNQSEVLASVGGSMIIGGIDHSLYTGSLWYTPIRREWYYEVIIVRVEINGQDLKMDCKEYNYDKSIVDSGTTNLRLPKKVFEAAVKSIKAASSTEKFPDGFWLGEQLVCWQAGTTPWNIFPVISLYLMGEVTNQSFRITILPQQYLRPVEDVATSQDDCYKFAISQSSTGTVMGAVIMEGFYVVFDRARKRIGFAVSACHVHDEFRTAAVEGPFVTLDMEDCGYNIPQTDESTLMTIAYVMAAICALFMLPLCLMVCQWRCLRCLRQQHDDFADDISLLKYKDDDDK
For B2, in data set [1], the cleavage of substrate result is recorded as “Both enzymes exhibited activity in cleaving β-secretase substrates such as MBP-C125”.

B3: recombinant full-length human β-secretase (1-501) expressed from pCEK clone 27 / pCFβA2 in 293T or Cos A2 cells (protein)
chain: ETDEEPEEPGRRGSFVEMVDNLRGKSGQGYYVEMTVGSPPQTLNILVDTGSSNFAVGAAPHPFLHRYYQRQLSSTYRDLRKGVYVPYTQGKWEGELGTDLVSIPHGPNVTVRANIAAITESDKFFINGSNWEGILGLAYAEIARPDDSLEPFFDSLVKQTHVPNLFSLQLCGAGFPLNQSEVLASVGGSMIIGGIDHSLYTGSLWYTPIRREWYYEVIIVRVEINGQDLKMDCKEYNYDKSIVDSGTTNLRLPKKVFEAAVKSIKAASSTEKFPDGFWLGEQLVCWQAGTTPWNIFPVISLYLMGEVTNQSFRITILPQQYLRPVEDVATSQDDCYKFAISQSSTGTVMGAVIMEGFYVVFDRARKRIGFAVSACHVHDEFRTAAVEGPFVTLDMEDCGYNIPQTDESTLMTIAYVMAAICALFMLPLCLMVCQWRCLRCLRQQHDDFADDISLLK
With B3, the “Aβ(x-40) production, ELISA of conditioned media” value in data set [2] is recorded as “approximately 8-fold increase in Aβ(x-40) production”; in data set [3], “approximate 2-fold increase in Aβ(x-40)”.

B4: naturally occurring human β-secretase purified from human brain (protein)
chain: B3 chain
Consider B4, for which the Specific Activity (MBP-C125 sw assay), Anion Exchange Pool (nM/h/µg prot.) in data set [1] turned out to be 1.49e+06.
